No end group written: not given here.
Target: T1, His-tagged SAR1A^(Δ2–17, H79G) (human, UniProt Q9NR31 1-198, Δ2–17 | H79G)
T1 construct: SAR1A, human, GTPase-defective H79G, N-terminal helix (residues 2-17) deleted; also called SAR1A^(Δ2–17, H79G)-His; His-tagged SAR1A(H79G) deleted of its N-terminal helix; source: purified, as described previously
Assay: pull-down; peptide-binding assay: polyR peptide coupled through its C-terminal cysteine to thiopyridone-Sepharose 6B beads (5 nmol peptide); 2 μg purified His-tagged SAR1A preincubated with 500 μM GTPγS; HK buffer (100 mM KCl, 20 mM Hepes, pH 7.2), 1 h at 4 °C; immunoblot
Details: both partners purified

T1 sequence (Q9NR31 other isoform, or with tags, fused parts or gaps Δ2–17 | H79G | Δ2–17 | H79G | H79G H79G): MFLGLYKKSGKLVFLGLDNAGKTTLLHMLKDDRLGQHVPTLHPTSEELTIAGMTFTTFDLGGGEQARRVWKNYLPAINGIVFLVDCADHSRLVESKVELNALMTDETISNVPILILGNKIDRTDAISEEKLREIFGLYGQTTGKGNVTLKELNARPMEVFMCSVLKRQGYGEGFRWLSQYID

binding result: binds
B1: synthetic polyR peptide of EGFR (RRRHIVRKRTLRRC) (peptide)
peptide: RRRHIVRKRTLRRC(Sepharose 6B)
notes: EGFR, juxtamembrane region of the cytosolic domain, amino acid number 669-681; added C-terminal cysteine residue used for coupling to the beads; also called polyR peptides; source: synthetic peptide, bought: GenScript

Reference: PMC12221741, “WT EGFR and the oncogenic mutant EGFR (L858R) employ distinct mechanisms for export from the endoplasmic reticulum, a process critical for their activation” (The Journal of Biological Chemistry, 2025)
